# Measured values: patent US6710030B1, “Contortrostain (CN) and methods for its use in preventing metastasis and other conditions” (University of Southern California, priority 1993, dated 2004)
# “Also recorded” adds a separate entry of the source. Like-named read-outs stand apart in the source and are kept apart here.
# Key:
# canine platelets = conditions: cited from earlier work
# purified αvβ5 = purified αvβ5 (Homo sapiens, UniProt P06756+P18084); experiment: Solid-phase binding of contortrostatin to purified αvβ5 (modified ELISA); conditions: 100 ng αvβ5 per well
# purified αvβ5, sequence (P06756 31-889 limits assumed): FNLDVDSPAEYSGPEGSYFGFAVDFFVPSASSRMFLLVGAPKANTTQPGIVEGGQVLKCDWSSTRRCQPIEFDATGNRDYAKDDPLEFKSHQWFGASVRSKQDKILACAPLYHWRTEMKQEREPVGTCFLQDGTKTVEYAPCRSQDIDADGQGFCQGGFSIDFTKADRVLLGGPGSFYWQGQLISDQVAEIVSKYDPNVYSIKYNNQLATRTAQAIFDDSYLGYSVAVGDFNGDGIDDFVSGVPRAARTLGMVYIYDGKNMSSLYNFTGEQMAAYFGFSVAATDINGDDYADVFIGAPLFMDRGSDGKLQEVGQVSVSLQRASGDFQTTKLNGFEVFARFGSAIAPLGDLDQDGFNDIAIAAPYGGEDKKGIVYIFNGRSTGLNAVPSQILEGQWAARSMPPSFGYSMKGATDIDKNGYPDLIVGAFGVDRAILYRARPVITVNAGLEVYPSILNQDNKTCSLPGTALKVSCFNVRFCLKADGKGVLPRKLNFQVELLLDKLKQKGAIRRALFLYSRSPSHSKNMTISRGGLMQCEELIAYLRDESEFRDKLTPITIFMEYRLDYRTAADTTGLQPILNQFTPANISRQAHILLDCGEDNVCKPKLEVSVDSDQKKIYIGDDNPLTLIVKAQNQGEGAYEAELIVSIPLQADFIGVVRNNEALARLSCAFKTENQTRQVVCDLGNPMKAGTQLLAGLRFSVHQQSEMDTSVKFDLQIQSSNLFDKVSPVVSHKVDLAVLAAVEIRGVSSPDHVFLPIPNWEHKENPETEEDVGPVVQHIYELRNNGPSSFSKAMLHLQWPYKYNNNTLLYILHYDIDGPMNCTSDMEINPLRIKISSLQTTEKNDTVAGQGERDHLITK
# purified αvβ5, sequence (P18084 24-799): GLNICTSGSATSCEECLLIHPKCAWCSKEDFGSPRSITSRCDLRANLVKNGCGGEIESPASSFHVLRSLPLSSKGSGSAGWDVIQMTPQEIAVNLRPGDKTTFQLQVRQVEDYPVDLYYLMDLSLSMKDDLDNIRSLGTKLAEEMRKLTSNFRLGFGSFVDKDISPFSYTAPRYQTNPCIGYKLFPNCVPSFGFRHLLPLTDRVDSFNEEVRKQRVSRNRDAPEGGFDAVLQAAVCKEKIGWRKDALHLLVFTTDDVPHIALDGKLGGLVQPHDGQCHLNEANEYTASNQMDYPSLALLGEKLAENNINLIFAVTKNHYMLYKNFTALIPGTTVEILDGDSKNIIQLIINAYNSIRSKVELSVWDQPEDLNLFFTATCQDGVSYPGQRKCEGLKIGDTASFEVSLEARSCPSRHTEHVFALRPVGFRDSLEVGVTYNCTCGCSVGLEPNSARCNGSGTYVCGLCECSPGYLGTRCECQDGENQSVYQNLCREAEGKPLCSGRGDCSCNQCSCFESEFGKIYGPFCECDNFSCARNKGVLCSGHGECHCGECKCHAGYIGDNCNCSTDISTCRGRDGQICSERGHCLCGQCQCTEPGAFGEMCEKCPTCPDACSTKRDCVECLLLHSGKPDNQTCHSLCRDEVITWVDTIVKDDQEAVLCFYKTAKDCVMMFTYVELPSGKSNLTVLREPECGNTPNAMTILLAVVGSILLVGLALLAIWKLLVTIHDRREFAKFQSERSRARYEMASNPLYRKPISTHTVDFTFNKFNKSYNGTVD
# Protocol: Experiment 3: Detection of the binding of contortrostatin to αvβ5: Direct evidence that contortrostatin binds to αvβ5 was collected by solid-phase binding assay using purified αvβ5 and a modified ELISA. Soluble αvβ5 (100 ng) was immobilized on wells of a 96-well plate at 4° C. overnight. Excess protein was washed off, and unbound sites were blocked with 1% BSA/PBS. Contortrostatin at various concentrations was allowed to bind to the coated plate at room temperature for one hour. After three washes with PBS, the bound contortrostatin molecules were detected with 1:1,000 antiserum against contortrostatin. Goat anti-rabbit antibody conjugated with alkaline phosphotase was used as a secondary antibody. The bound antibodies were quantitated by applying substrate disodium p-nitrophenyl phosphate (pNPP) and determining the light absorbance at 405 nm 15 minutes after the initiation of the chromagenic reaction. The background is defined by the binding of antiserum against the disintegrin to immobilized αvβ5. Specific binding is obtained by substrating the background from the total binding. Analyses of each concentration of ligand were performed in triplicate.
# OVCAR-5 cells = experiment: Invasion of OVCAR-5 cells through Matrigel, modified Boyden chamber; format: cell-based, human; conditions: 1000 nM
# Protocol: Modified Boyden chambers were employed to measure invasion. Filters of 12 mm Boyden chamber with 12 μm pore size (Corning Costar, Cambridge, Mass.) were coated with 1:50 dilution of Matrigel in serum free medium. Cells (2.5×10^5 cells in 200 μl of medium) pre-treated with contortrostatin, antibodies against different integrins, or vehicle (control), were applied to the upper wells. HT1080 conditioned medium was added to the bottom well. The cells were incubated at 37° C. for 8 hr., at which point cells on the top side of the membrane were removed with a wet cotton swab. Cells which invaded through the filter membrane were fixed and stained with Diff-Quik™ staining kit (Dade Diagnostics of P. R. Inc., Aguada, Puerto Rico). The membranes were removed from the holder, and were mounted on slides. Migration was quantitated by determining the number of cells in five randomly selected high power vision field using a microscope. Each inhibitor concentration was tested in duplicate, and the experiments were repeated three times to confirm results.
# [1] = system: c-Ha-ras transfected rat embryo (4R) cells; conditions: cited from earlier work
# αvβ3 293 cells = experiment: Phosphotyrosine immunoblot, 293 cells expressing αvβ3; format: cell-based, human; conditions: 10 min
# Protocol: (§1) Cell culture, preparation and stimulation—T24 cells were maintained in RPMI 1640 medium containing 5% fetal bovine serum, and MDA-MB-435 and 293 cells were maintained in Dulbecco's modified Eagle's medium with 10% serum at 37° C. in 5% CO2. Cells were washed with phosphate-buffered saline (PBS) and starved in the appropriate serum-free medium for 6 h at 37° C. Cells were detached by brief treatment with 0.05% trypsin/0.02% EDTA in PBS and collected by centrifugation, resuspended in soybean trypsin inhibitor (1 mg/ml in serum-free medium), and washed in 2% bovine serum albumin/serum-free medium. Cells were maintained in suspension for 1 h in 2% bovine serum albumin/serum-free medium at 37° C. with end-over-end agitation. Quiescent cells (3×10^6/ml) were treated with disintegrins or other reagents while in suspension, or were allowed to adhere to Matrigel (Becton Dickinson, Bedford, Mass.) diluted 1:100 with serum-free medium during treatment. […]
# (§2) Contortrostatin- induced signaling events are mediated by the αvβ3 integrin—The integrinbinding specificities of echistatin and flavoridin have been determined previously (Niewiarowski et al., supra; and Pfaff, M., McLane, M. A., Beviglia, L., Niewiarowski, S., and Timpl, R. (1994) Cell Adhesion and Communication 2, 491-501). […]
# αvβ5 293 cells = experiment: Phosphotyrosine immunoblot, 293 cells expressing αvβ5; format: cell-based, human; conditions: 10 min
# Protocol: as §1, §2
molecule,measurement,setting,value
contortrostatin (protein) DAPANPCCDAATCKLTTGSQCADGLCCDQCKFMKEGTVCRRARGDDLDDYCNGISAGCPRNPFHA,"50% inhibition (IC50) of platelet aggregation, canine platelets",canine platelets,2.2 µg/mL
same,binding to immobilized αvβ5,purified αvβ5,binds to αvβ5 in a dose-dependent and saturable manner
same,invasion of OVCAR-5 cells through Matrigel,OVCAR-5 cells,almost completely inhibited invasion
same,Inhibition of 4R cell binding to fibronectin,[1]; CN at 1 μg/ml,46%
same,Inhibition of 4R cell binding to fibronectin,[1]; CN at 5 μg/ml,88%
same,tyrosine phosphorylation,αvβ3 293 cells,robust induction of tyrosine phosphorylation; also recorded: increased tyrosine phosphorylation
same,tyrosine phosphorylation,αvβ5 293 cells,no response
